Data taken from the DeepSol protein solubility set.

Assay: soluble on expression in E. coli; label from the status in PepcDB or PDB records

Row | Sequence | soluble on expression in E. coli
1 | MGSSHHHHHHSSGLVPRGSKKKKEMPFPNKKIELGDKLSESIRSFSTITDTEIIIGICRKNIPGWKEINESYIEVKQIFSGLTNQLFVVSIVNESMSLSLKHPRILFRIYGKHVGKFYDSKVELDVFRYLSNINIAPNIIADFPEGRIEEFIDGEPLTTKQLQLTHICVEVAKNMGSLHIINSKRADFPSRFDKEPILFKRIYLWREEAKIQVSKNNFQIDKELYSKILEEIDQLEELIMGGEKFSMERALELKLYSPAFSLVFAHNDLQENNLLQTQNNIRMIDYEYSAINFAGADIANYFCEYIYDYCSEKQPYFKFKYEDYPCEELRKLFISVYLSQTLQEQVMPSQQIVHIMTKAVEVFTLISHITWGLWSIARTPGYQPNSVEFDFTEYANTRFTHYLQKKKELIDQGILPLNSWLFNL | soluble
2 | MGSSHHHHHHSSGLVPRGSMAGVDPFTGNSAYRSAASKTMNIYFPKKEAVTFDQANPTQILGKLKELNGTAPEEKKLTEDDLILLEKILSLICNSSSEKPTVQQLQILWKAINCPEDIVFPALDILRLSIKHPSVNENFCNEKEGAQFSSHLINLLNPKGKPANQLLALRTFCNCFVGQAGQKLMMSQRESLMSHAIELKSGSNKNIHIALATLALNYSVCFHKDHNIEGKAQCLSLISTILEVVQDLEATFRLLVALGTLISDDSNAVQLAKSLGVDSQIKKYSSVSEPAKVSECCRFILNLL | soluble
3 | MGSSHHHHHHSSGRENLYFQGHMPCQPACPVSADTWAPSAVPDDYRYADLHLPQQVGQASLAAECAVAISYNGLNQAVMMASPEDIEDFVRGFSLSSGFVESIDDIYEIRVSGQGESLHAEVEISSRAFWNLKRQRRQLAGTSGCGLCGVEALEQALPQLPERSPQALPPAAHLGALRQRIEQAQRLARHSGALHAALYFDGHGELRLCREDIGRHNALDKLIGALHRQGLDAARGFAVVTSRCSLELIHKAVRAGIGTLVSLSAPTALTVQWARRHQLNLIHQPHHNAPRVYSPAPAATE | soluble
4 | MGSVRKASAWLGLVDDNDDERYYDDDYAEGQESGEAWVTDPRVKVASETAEEKGRRIGTVTPDSFRDARGIGELFRDGVPVIINLTAMEPTDAKRVVDFAAGLTFGLRGTIERVATRVFLLTPANTEIVSGEAAGRPTDGFFNQSLEHHHHHH | not soluble
5 | MGSVVPHYSWFSGITQFQKGKEFQFAEGQGVPIANGIPASEQKGYWYRHNRRSFKTPDGQQKQLLPRWYFYYLGTGPHAGASYGDSIEGVFWVANSQADTNTRSDIVERDPSSHEAIPTRFAPGTVLPQGFYVEGSGRS | soluble
6 | MGSWSEKAFSASKLDDAIAAKFGSLPIQESTAIQIKAPEIAENGAFVPVTVATSIPGATNISIFTPANFSPMVASFDVLPRMKPEVSLRMRMAKTENLVVVVQAGGKLYRAVREVKVTIGGCGG | soluble
7 | MGTLWWNGTFFTMVHEGDQVEAVFTEDGKIVAIGTAEELRQRYSTRINQEMNCDGAYVYPGFVDSHLHMIGLEHHHHHH | not soluble
8 | MGTYTVNVSSLNVRTGPSTSHTVLGSVNKGKTVQVVSEVQDWFKINFNGGTGYVSKDFVTKGGSAVLEHHHHHH | not soluble
9 | MGVHSFWDIAGPTARPVRLESLEDKRMAVDASIWIYQFLKAVRDQEGNAVKNSHITGFFRRICKLLYFGIRPVFVFDGGVPVLKRETIRQRKERRQGKRESAKSTARKL | not soluble
10 | MGVVHDVWRATKELLEATALPWPSEEREERLAAVDRLLREREELLRKLRPPYSEEEQELGREIIVWNQEIEARLLRVCEEIRRDLRMTGAKRQANARYVHPYEQPLSFDGMFYDKRR | not soluble
11 | MGVVRRGSDVTSHVSSVSGKSAPCLQHFSVIRSIGRGAFGKVCIVQERKTKKYFALKYMNKRRCIEKGVAANVIRELTLLSKMSHPFIVNLWYTFQDGDYMYMVSDLLLGGDLRYHLSQQGKFAEDRAKLYLCEICLAVEYLHEMKIVHRDIKPENILLDEQGHAHLTDLNLATQLEDDQLATSYSGTRPYMAPEIYATYLEIEDGYDSRVDWWALGVCFYEMLRGRTPFEFSSRTKPEEAYVAFRESSIPYPAHWPTDLIQFINSMLKFDKEKRLVGLEAIKKHSYTERIDFKSVFEKKPSPVFIPCKEGLNCDPMYELEERILVSTPIHRRRTNHNNSSGRSSSEPQNAALVEVSKAFIDFSRHNVKIEPNGFVKLN | not soluble
12 | MGYIEELRKIVGTRPLILAGVGVAVIDDYGRILLQKRRDGLWGVPGGLLELGESTEEAARREVLEETGLEIGELELIDVFSGQKYFVRLPNGDQYYPVTIVYCTRDIRGGELGEDGKESLEVKFFFLHELPNELSPLFQDLVEHYFGS | soluble
13 | MHATSRVAWFWRPSCQSFIRKMPCRPIVLSGPSGGGKSTILTRAMQEYPNSFAFSVSHTTRQPRAGEEHGKHYYFTEKEKMQEMIKNNEFLEFATFSGNTYGTSKKTVLEIENSGKICVLDIELQGVRNIKNSHLDARYILIRAPSIKLLEERLRARGTETEESLSKRLQHASEDLVEIEKNPTLFDKVIVNDDLERAYKEFVDLLRDDLEKTSKK | not soluble
14 | MHCPFCFAVDTKVIDSRLVGEGSSVRRRRQCLVCNERFTTFEVAELVMPRVVKSNDVREPFNEEKLRSGMLRALEKRPVSSDDVEMAINHIKSQLRATGEREVPSKMIGNLVMEQLKKLDKVAYIRFASVYRSFEDIKEFGEEIARLED | soluble
15 | MHEFRDYYGHRVRLAFADHPFSPSPGHVWVICRYGGRWLLTDHPRRGLEFPGGKVEEGETAAEAAAREVMEETGGIVGRLEYIGQYKVEPDIVKNIYFADIAALVERGSYLETNGPVLLEALPDDIRSDQRFSYFMKDDVLSLALAKLKQRGLID | not soluble
16 | MHFFDTHTHLNYLQQFTGEPLSQLIDNAKQADVQKILVVAVKEADFKTIQNMTALFPDNLCYGLGLHPLYIQEHAENDLILLEQALKNRDTNCTAVAEIGLERAIPDLLTDELWAKQCHFFESQLYLAKQFNLPVNIHSRKTHDQIFTFLKRIPLSKLGVVHGFSGSYDQAKRFVDLGYKIGVGGTITYERANKTRQAIAKLPLDALVLETDSPDMPVFGFQGQPNRPERIVESFKALCTLRNEPAELIKKLTWENACQIFSLEHHHHHH | not soluble
17 | MHGLQDDPDLQALLKGSQLLKVKSSSWRRERFYKLQEDCKTIWQESRKVMRSPESQLFSIEDIQEVRMGHRTEGLEKFARDIPEDRCFSIVFKDQRNTLDLIAPSPADAQHWVQGLRKIIHHSGSMDQRQK | soluble
18 | MHHHHHHSSGLVPRGSGMKETAAAKFERQHMDSPDLGTDDDDKAMGCQKAVSPAAETAAVSPSVDAARLEPRVEERDGFWVLKEEFRSGINPAEKVKIEKDPMKLFIEDGISDLATLSMEEVDKSKHNKDDIDVRLKWLGLFHRRKHHYGRFMMRLKLPNGVTTSEQTRYLASVIKKYGKDGCADVTTRQNWQIRGVVLPDVPEIIKGLESVGLTSLQSGMDNVRNPVGNPLAGIDPHEIVDTRPFTNLISQFVTANSRGNLSITNLPRKWNPCVIGSHDLYEHPHINDLAYMPATKNGKFGFNLLVGGFFSIKRCEEAIPLDAWVSAEDVVPVCKAMLEAFRDLGFRGNRQKCRMMWLIDELGMEAFRGEVEKRMPEQVLERASSEELVQKDWERREYLGVHPQKQQGLSFVGLHIPVGRLQADEMEELARIADVYGSGELRLTVEQNIIIPNVENSKIDSLLNEPLLKERYSPEPPILMKGLVACTGSQFCGQAIIETKARALKVTEEVQRLVSVTRPVRMHWTGCPNSCGQVQVADIGFMGCMTRDENGKPCEGADVFVGGRIGSDSHLGDIYKKAVPCKDLVPVVAEILINQFGAVPREREEAE | soluble
19 | MHHHHHHSSGRENLYFQGMEELIPLVNRLQDAFSALGQSCLLELPQIAVVGGQSAGKSSVLENFVGRDFLPRGSGIVTRRPLVLQLITSKAEYAEFLHCKGKKFTDFDEVRLEIEAETDRVTGMNKGISSIPINLRVYSPHVLNLTLIDLPGITKVPVGDQPPDIEYQIREMIMQFITRENCLILAVTPANTDLANSDALKLAKEVDPQGLRTIGVITKLDLMDEGTDARDVLENKLLPLRRGYVGVVNRSQKDIDGKKDIKAAMLAERKFFLSHPAYRHIADRMGTPHLQKVLNQQLTNHIRDTLPNFRNKLQGQLLS | soluble
20 | MHHHHHHSSGRENLYFQGSEREASRLDKFKQLLAGPNTDLEELRRLSWSGIPKPVRPMTWKLLSGYLPANVDRRPATLQRKQKEYFAFIEHYYDSRNDEVHQDTYRQIHIDIPRMSPEALILQPKVTEIFERILFIWAIRHPASGYVQGINDLVTPFFVVFICEYIEAEEVDTVDVSGVPAEVLCNIEADTYWCMSKLLDGIQDNYTFAQPGIQMKVKMLEELVSRIDEQVHRHLDQHEVRYLQFAFRWMNNLLMREVPLRCTIRLWDTYQSEPDGFSHFHLYVCAAFLVRWRKEILEEKDFQELLLFLQNLPTAHWDDEDISLLLAEAYRLKFAFADAPNHYKK | soluble
21 | MHHHHHHSSGVDLGTENLYFQSMNITKGGLVLFSANSNSSCMELSKKIAERLGVEMGKVQVYQEPNRETRVQIQESVRGKDVFIIQTVSKDVNTTIMELLIMVYACKTSCAKSIIGVIPYFPYSKQCKMRKRGSIVSKLLASMMCKAGLTHLITMDLHQKEIQGFFNIPVDNLRASPFLLQYIQEEIPDYRNAVIVAKSPASAKRAQSFAERLRLGIAVIHGEAQDAESDLVDGRHSPPMVRSVAAIHPSLEIPMLIPKEKPPITVVGDVGGRIAIIVDDIIDDVDSFLAAAETLKERGAYKIFVMATHGLLSSDAPRRIEESAIDEVVVTNTIPHEVQKLQCPKIKTVDISMILSEAIRRIHNGESMSYLFRNIGLDD | soluble
22 | MHHHHHHSSGVDLGTENLYFQSNAMKHIQINPSILSADLARLGDDVKAVLAAGADNIHFDVMDNHYVPNLTFGPMVLKALRDYGITAGMDVHLMVKPVDALIESFAKAGATSIVFHPEASEHIDRSLQLIKSFGIQAGLALNPATGIDCLKYVESNIDRVLIMSVNPGFGGQKFIPAMLDKAKEISKWISSTDRDILLEIDGGVNPYNIAEIAVCGVNAFVAGSAIFNSDSYKQTIDKMRDELNKV | soluble
23 | MHIEEKTTQLQDQQQVSITIYNENLALVRDLRHVPLEKGINKLAWCDVSAQIRPETALLRTPEKTSSIRMVEQNFDFDLLTPEKLLEKYLGRSVNVIYVNPATGAETVEAAIVLSISGGVVLKFKDRIETGTPGRIAFPDVPGSLHDHPTLSLVLDGATPGKHELELSYLTSGLSWQADYVARLDANDGRLDLSGLVTLANHSGIAYPDAHLQLVSGEVNQVTPEPPQARKMMAMVADAAEYQAVREESLSEYHLYSLPVPTTLAENQSKQITLMSVTDIPVSQEFLLRGTNAYYFSRYSNLDDKLKPVVLIQFKNEGEGLGVPLPRGTIRVYQNDSRDNLQFLGEDHIDHTAKNEEVRVKLGKATDITAMRTQTDFQQLDTPSRRFTETATDITAMRTQTDFQQLDTPSRRFTETAHQIEIHNARQEAVTIRVQEPIPGDWMMISESQPHTKSSANLVEWLVKVPTNQKTILSYRVRIKHLEHHHHHH | not soluble
